Drawing on article PMC12093266, “Synergistic action of two radical SAM enzymes in the biosynthesis of thuricin CD, a two-component sactibiotic†” (Chemical Science, 2025), this text covers Kd for 2 molecules.

For orientation: Kd means the free concentration of one partner at which half of the binding sites on the other are occupied at equilibrium, for simple one-to-one binding.

The assay has as its target T1, TrnC (Bacillus thuringiensis, fluorescently labeled with RED-NHS (in the MST experiments where TrnC is the labelled partner)).
T1 construct: TrnC, radical SAM (rSAM/SPASM) sactisynthase encoded in the thuricin CD biosynthetic gene cluster of Bacillus thuringiensis; Likely holds three [4Fe-4S] clusters after reconstitution; also called 6× His-tagged TrnC; wild type TrnC; source: E. coli, purified to near homogeneity and reconstituted under anaerobic conditions; also E. coli lysate, coexpressed with non-tagged TrnD from a …
The assay is described as follows: MST; TrnC fluorescently labeled with RED-NHS; series of diluted TrnD (or TrnD(ΔRRE), or an equimolar mixture of TrnD with TrnA or TrnB) mixed with it in capillaries; Monolith instrument; aerobic conditions. Conditions: both partners purified.

B1: TrnD (enzyme)
chain: MKKYFRLYPYCHLEIGETNSCLYDISSGKMIRVNRENAELLRQCQENVPIESINMDLGILDELIKMNLGTYYANPQFIEPFFETNDTKNRIFGKNNILRQMFILTSTDCNMNCKHCNTDSTVFRKTGCKIWPKSINLNALTQSHWRKILEAFYNLHGEELTFIGGEPFLEFDFIKNIVEIAQEVGISKFSIFTNGSIINDTILNFLMENKIKVYIQIFEVDENKFKAFTNSDIPSIQIIDNIKKLNNHHLDLQLRILITRDNDNNLKKIVNTLQKETNVKDIKIEFLYPKPDNSYYSKKYIPLMYDKKREFSHVNVQKMQFLHQYNPSFFGQITIRRDGKVVPHPMLLTRVIGDLQQDDLFTIINTEEYQEYSTLNKEKISKCSTCAYKYNCMDDRVIENFATGDLYGMEYCNF
modifications: fluorescently labeled (in the MST of Fig. 5D only)
As to B1, the Kd was determined as 2390 ± 460 nM.

B2: equimolar mixture of TrnD and TrnB (complex)
chain 1: MKKYFRLYPYCHLEIGETNSCLYDISSGKMIRVNRENAELLRQCQENVPIESINMDLGILDELIKMNLGTYYANPQFIEPFFETNDTKNRIFGKNNILRQMFILTSTDCNMNCKHCNTDSTVFRKTGCKIWPKSINLNALTQSHWRKILEAFYNLHGEELTFIGGEPFLEFDFIKNIVEIAQEVGISKFSIFTNGSIINDTILNFLMENKIKVYIQIFEVDENKFKAFTNSDIPSIQIIDNIKKLNNHHLDLQLRILITRDNDNNLKKIVNTLQKETNVKDIKIEFLYPKPDNSYYSKKYIPLMYDKKREFSHVNVQKMQFLHQYNPSFFGQITIRRDGKVVPHPMLLTRVIGDLQQDDLFTIINTEEYQEYSTLNKEKISKCSTCAYKYNCMDDRVIENFATGDLYGMEYCNF
chain 2: MEVLNKQNVNIIPESEEVGGWVACVGACGTVCLASGGVGTEFAAASYFL
B2: the Kd amounted to 620 ± 160 nM.
